# Measurements published in article PMC10011331, “Vitamin C transporter SVCT1 serves a physiological role as a urate importer: functional analyses and in vivo investigations” (Pflugers Archiv, 2023).
# Key:
# [1] = system: T1, O=c1[nH]c(=O)c2[nH]c(=O)[nH]c2[nH]1; experiment: cells, lysate or membranes; format: cell-based, Homo sapiens; settings: Na+ urate and vitamin C could compete for SVCT1-mediated transport
# T1 construct: full-length human SVCT1 WT, EGFP fusion (pEGFP-N1)
# [2] = system: T2, O=c1[nH]c(=O)c2[nH]c(=O)[nH]c2[nH]1; experiment: cells, lysate or membranes; format: cell-based, Mus musculus; settings: Na+
# T2 construct: mouse Svct1 WT, EGFP fusion
Substance,Km [1],Km [2]
SVCT1 (Homo sapiens),1511 µM,
Svct1 (Mus musculus),,646.9 µM
